# Results reported in PMC6547806.
# Target: Angiomotin (Amot80) coiled-coil homology (ACCH) domain, wild type
# Experiment: SEC
substance,measurement,value
"Angiomotin (Amot80) coiled-coil homology (ACCH) domain, wild type (domain or fragment)",stoichiometry N,4
